Experimental findings from patent publication US20100021899 (NATIONAL UNIVERSITY CORPORATION TOKYO UNIVERSITY OF …, published 2010) are described below.

The data set concerns the target BSA (bovine serum albumin) (Bos taurus, UniProt P02769 P02769:25-607). Nature of the data set: ELONA; plate assay on immobilized CaDNA-3-11T; no concentration-dependent signal with BSA; PBS-T, room temperature. The settings on record: structure-switching stem-loop.

Chain of BSA (bovine serum albumin) (P02769 25-607, one chain of several): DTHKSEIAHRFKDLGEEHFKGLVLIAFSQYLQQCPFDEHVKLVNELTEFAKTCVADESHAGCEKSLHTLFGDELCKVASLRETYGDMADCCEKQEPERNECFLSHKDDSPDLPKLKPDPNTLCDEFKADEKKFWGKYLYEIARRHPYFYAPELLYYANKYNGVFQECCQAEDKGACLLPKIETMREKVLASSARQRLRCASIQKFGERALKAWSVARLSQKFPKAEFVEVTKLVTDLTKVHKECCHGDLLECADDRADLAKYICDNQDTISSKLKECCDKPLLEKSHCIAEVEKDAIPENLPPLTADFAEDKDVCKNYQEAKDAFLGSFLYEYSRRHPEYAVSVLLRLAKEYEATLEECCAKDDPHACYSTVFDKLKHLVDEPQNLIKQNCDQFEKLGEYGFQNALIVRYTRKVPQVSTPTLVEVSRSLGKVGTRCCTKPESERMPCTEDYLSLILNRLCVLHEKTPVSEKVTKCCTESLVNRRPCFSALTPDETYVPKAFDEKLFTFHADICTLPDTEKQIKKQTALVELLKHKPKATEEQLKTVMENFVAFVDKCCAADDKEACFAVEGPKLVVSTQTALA

B1: CaAp-3 (ssDNA)
DNA: GTTCGGCACTTGGGCCCTTTTCTGTGTCTTTCTGTGCCCTTAGATAGTATGTGCAATCA
In the case of B1, the binding result is “no binding”.
